What all share (assay): BLI
Background: BLI is a label-free optical method that tracks binding on a fibre tip over time.

Assay [1] addresses R11K (RBD 319-533 with 11 added lysines and the repackaging substitutions Y365F, F392W, V395I) (SARS-CoV-2 Wuhan Hu-1).
Assay [2] deals with R11K-PMD (R11K modified with NHS-PEG4-methyl while protected by S2X259) (SARS-CoV-2 Wuhan Hu-1).
In assay [3] the target is R11K-CL (R11K cross-linked with Bis-NHS-PEG5 while protected by S2X259) (SARS-CoV-2 Wuhan Hu-1).
Assay [4] concerns the target R11K-PMD (R11K modified with NHS-PEG4-methyl while protected on S2X259 resin) (SARS-CoV-2 Wuhan Hu-1).
In assay [5] the target is R11K-CL (R11K cross-linked with Bis-NHS-PEG5 while protected on S2X259 resin) (SARS-CoV-2 Wuhan Hu-1).
In assay [6] the target is R11K (RBD with 11 additional lysines and three repackaging substitutions) (SARS-CoV-2 Wuhan Hu-1).

With CB6 (class 1 RBD-directed antibody), in assay [1], the koff was determined as 0.037 s⁻¹. CR3022 (class 4 RBD-directed antibody) showed a koff in assay [1] of 0.059 s⁻¹. S2X259 (class 4 RBD-directed antibody): the koff in assay [1] was determined as 0.0021 s⁻¹.

S2X259 IgG (antibody): the figures for the koff in assay [2] and in assay [3] were 0.00085 s⁻¹ and 0.001 s⁻¹, respectively. In the case of S309 (class 3 RBD-directed antibody), the koff stood at 0.00014 s⁻¹ in assay [1], 0.0019 s⁻¹ in assay [4] and 0.0021 s⁻¹ in assay [5].

As to “fragment antigen-binding region (Fab) of S2X259”, in assay [6], the Kd worked out at 1.5 nM.

What is called koff is the rate constant with which the complex falls apart. The low end stands for a long-lived complex, the high end for a short-lived complex. By Kd is commonly meant the equilibrium constant for the complex coming apart.

Source of the values: publication PMC11503491.
